Measured values taken from paper PMC9413441.

Molecular target: SNAP-Protein G
Experiment: titration on hydrogel beads, read by flow cytometry of the beads; SNAP-Protein G covalently immobilised on PHD beads (20 um, 50 uM BG); titration series of fluorescently labelled mouse IgG2b at room temperature with rolling for the indicated times, then washed; mean of triplicates fitted to fluorescence = (fluorescencemax x [IgG])/(KD + [IgG])

fluorescently labeled mouse IgG2b (antibody)
Kd: 30.1 nM
